Earlier results on one substance are cited in patent publication US20100216667A1, “METHOD FOR DETERMINING COMPATIBILITY OF AN ACTIVE PHARMACEUTICAL INGREDIENT WITH MATERIALS” (priority 2008, published 2010).

For this data set the following is noted: pre-filled syringes with uncoated stoppers and Polysorbate-80.

Take “EPREX: marketed product whose active ingredient is erythropoietin”: the “Pure red cell aplasia (PRCA) in treated patients” value is “increase in pure red cell aplasia (PRCA)”.
